Measurements as given in publication PMC7006816, “Human β-Defensin 2 Mediated Immune Modulation as Treatment for Experimental Colitis” (Frontiers in Immunology, 2020).
Where no end group is shown, it is not given here.

Experiments:
[1] = system: intestinal epithelial cells; conditions: cited from earlier work
Excerpt: (§1) Herein we report that hBD2 can be used as a systemically administered anti-inflammatory biological. hBD2 is well-tolerated, both in vitro, and in vivo. […] After su ...

[2] = system: human mesenchymal stem cells, osteoblasts, keratinocytes, and HeLa cells; conditions: cited from earlier work
Excerpt: as §1

NMRI mice = test: In vivo toxicity test, single s.c. dose; set-up: species or system mouse; conditions: for Clinical signs at the end of the day of dosing / Clinical signs on the day of dosing: Clinical signs / Clinical signs on the day of dosing: No clinical signs / Clinical signs on the day of dosing: Pruritus / Necropsy: Macroscopic findings: female NMRI mice; for Clinical signs at the end of the day of dosing / Clinical signs on the day of dosing: Clinical signs / Clinical signs on the day of dosing: No clinical signs / Clinical signs on the day of dosing: Pruritus: animals/group; for Necropsy: Macroscopic findings: necropsy day 4, animals/group
Experimental: In vivo toxicity of hBD2 was assessed in 6–8 weeks old female NMRI mice (Taconic Europe). All animal studies were performed according to Danish legislations for laboratory animals and approved by Novozymes science ethics committee. hBD2 was given subcutaneously (s.c.) in the intrascapular region using a 25G needle and a 1 ml syringe. […] Clinical signs were recorded on day 0 and monitored until experimental endpoints. Body weights were recorded as a minimum on day 0, day 2, and day 4 prior to euthanasia. Necropsy was performed after euthanasia and kidneys, spleens and livers were weighed.

human Mo-DC's = test: Cytokine production by human Mo-DC's; assay type: cell-based; conditions: hBD2 100 μg/ml or 10 μg/ml, 24 h, ELISA, n = 3
Experimental: Peripheral blood was drawn from healthy donors and diluted one to one in PBS. The mixture was stacked in a falcon tube on Biocoll separation solution (Biochrome) with a ratio of three parts blood PBS mixture to two parts Biocoll. For a density gradient centrifugation the falcon tubes were centrifuged at 2,000 rpm for 30 min at RT. The PBMC's were removed and washed twice with PBS. 1.5 × 10^6 cells were seeded per well in a tissue culture-treated 6-well plate in RPMI-1640 medium (Merck) supplemented with 10% fetal calf serum (FCS; Sigma-Aldrich), 2 mM L-glutamine (Biochrome), 100 U/ml penicillin/streptomycin (Gibco), 50 μM 2-mercaptoethanol (Fluka), 1 mM sodium pyruvate (Biochrome), and 1x non-essential amino acids (Biochrome) and incubated for 1 h at 37°C and 5% CO2 for monocyte adherence. Then the cells were washed with media and PBS to remove the non-adherent cells and were cultivated for 6 days with media additional supplemented with 50 ng IL-4 and 100 ng GM-CSF (Miltenyi). […]
2 × 10^5 murine BM-DC's or human Mo-DC's were seeded in 96-well round bottom plates. […] 24 h later supernatants were collected and TNF-α [Biolegend (BM-DC's); R&D (Mo-DC's)] was analyzed according to the manufacturer's instructions. IL-10, IL-12, and IL-1β (LEGENDplex Biolegend) was as well-analyzed according to the manufacturer's instructions.

[3] = system: SCID mice with CD4+/CD25− T cell transfer colitis; test: T cell transfer colitis model; assay type: in vivo, mouse
Experimental: This study was performed by the Department of Biomedical Science at the University of Catania according to directive 86/609 EEC and approved by Novozymes science ethics committee. 8 weeks old female BALB/c and C.B-17 female SCID mice were purchased from Harlan (Italy). Colitis was induced in severe combined immunodeficiency (SCID) mice by transplantation of CD4^+/CD25^− T cells from the BALB/c mice. Briefly, lymphomonocytes isolated from spleen or lymph nodes from BALB/c mice were subjected to negative selection of CD4^+ T cells. Afterwards, CD4^+/CD25^+ cells were positively isolated by binding to the beads from the CD4^+ T cell suspensions and the CD4^+/CD25^− were collected from supernatant. […] CD4^+/CD25^− cells were intraperitoneally injected to SCID mice at a concentration of 500,000 cells in a final volume of 0.2 ml RPMI 1640. Sham treated animals (n = 6) received 0.2 ml pure RPMI 1640. Diseased mice were randomized divided into 4 groups (n = 11) and treated once daily by s.c. application of PBS (vehicle), hBD2 (0.1 and 1 mg/kg, respectively) or 0.3 mg/kg Dexamethasone (Dexa., applied intraperitoneally). Treatments started 7 days post T cell transfer and continued daily for 86 days. Animals were weighed three times a week and monitored twice a week starting from day 42 for the clinical status, summarized as DAI. The DAI included body weight loss, stool consistency, and the presence of blood at the rectum. One animal in the vehicle and one in the Dexamethasone treated groups had to be sacrificed before the end of the study. At the end of the study, animals were sacrificed and the colon was removed and carefully cleaned for further analysis. First, the colon was weighed then a section from the middle was removed and fixed for pathologic survey. The rest of the colon (5 cm) was used to quantify the activity of myeloperoxidase in the tissue.
Myeloperoxidase activity was performed on 5 cm of colon previously frozen at −80°C. Colon was homogenized in 0.5% of HETAB dissolved in 10 mM of Phosphate-Citrate Buffer (pH 7.0) to enable the release of MPO enzyme from the neutrophil granules. Homogenated samples after three freeze-thaw cycles were spun at 3,000 × g at 4°C for 30 min. Pellets were resuspended in 0.5% HETAB in 10 mM Phosphate-Citrate Buffer and spun again at 3,000 × g at 4°C for 30 min. 500 ul of supernatant were delivered into a vial along with 500 ul of TMB in Phosphate-Citrate Buffer containing Perborate Sodium. Changes in absorbance at 620 and 450 nm were read by a spectrophotometer (IRIS). Peroxidase enzyme diluted in 0.5% HETAB in 10 mM Phosphate-Citrate Buffer and H2O was used as standard. Two-fold dilutions of standard were prepared at the highest concentration of 50 pg/ml. Reagents and samples were kept refrigerated. Substrate solution was prepared just before the assay. MPO activity expresses the amount of enzyme that is able to degrade […] of peroxide/min and it is expressed as U/g tissue weight.
Sections of the colon were taken from each animal and preserved in neutral buffered formaline for subsequent histological analysis. Sections were stained using haematoxylin and eosin for further scoring.

[4] = hBD2 1 mg/kg s.c. daily, n = 11

human β-defensin 2 (GIGDPVTCLKSGAICHPVFCPRRYKQIGTCGLPGTKCCKKP; not fully specified; ends and bridges not checked) [hBD2, Recombinant human β-defensin 2 expressed in E. coli as his-tagged thioredoxin fusion, cleaved and purified, natural tertiary structure]
Tolerability [1]: well-tolerated by intestinal epithelial cells
Cytotoxic effects [2]: without observing cytotoxic effects
Clinical signs after systemic challenge (NMRI mice; 0.5 mg/kg s.c.): did not develop any clinical signs
Clinical signs at the end of the day of dosing (NMRI mice; 0.5 mg/kg s.c.): 0/3
Clinical signs on the day of dosing: Clinical signs (NMRI mice; 0.5 mg/kg s.c.): 0/3
Clinical signs on the day of dosing: No clinical signs (NMRI mice; 0.5 mg/kg s.c.): 3/3
Clinical signs on the day of dosing: Pruritus (NMRI mice; 0.5 mg/kg s.c.): 0/3
Necropsy: Macroscopic findings (NMRI mice; 0.5 mg/kg s.c.): 0/3
Clinical signs at the end of the day of dosing (NMRI mice; 10 mg/kg s.c.): 0/3
Clinical signs on the day of dosing: Clinical signs (NMRI mice; 10 mg/kg s.c.): 3/3
Clinical signs on the day of dosing: No clinical signs (NMRI mice; 10 mg/kg s.c.): 0/3
Clinical signs on the day of dosing: Pruritus (NMRI mice; 10 mg/kg s.c.): 3/3
Necropsy: Macroscopic findings (NMRI mice; 10 mg/kg s.c.): 0/3
Clinical signs at 60 min post dosing (NMRI mice; 40 mg/kg s.c.): still affected at 60 min post dosing
Clinical signs at the end of the day of dosing (NMRI mice; 40 mg/kg s.c.): 0/3
Clinical signs on the day of dosing: No clinical signs (NMRI mice; 40 mg/kg s.c.): 0/3
Clinical signs on the day of dosing: Pruritus (NMRI mice; 40 mg/kg s.c.): 3/3
Necropsy: Macroscopic findings (NMRI mice; 40 mg/kg s.c.): 0/3
Body weight gain (NMRI mice; 0.5, 10, 40 mg/kg s.c., day 0-4): did not show any weight loss
Adverse effects at necropsy (NMRI mice; 0.5, 10, 40 mg/kg s.c., necropsy day 4): no adverse effects were observed at necropsy
Organ weight (liver, spleen, kidneys) (NMRI mice; 0.5, 10, 40 mg/kg s.c., necropsy day 4, hBD2 mice n = 3, control n = 2): nor did the organ weight differ significantly between the groups
Clinical signs shortly after challenge (NMRI mice; 10 or 40 mg/kg s.c., 10–15 min after challenge, transient): mild clinical signs
TNF-α production in LPS-challenged human mo-DCs (human Mo-DC's): dose-dependently curbed TNF-α production
Outcome of T cell mediated colitis ([3]; hBD2 0.1 mg/kg s.c. daily, n = 11): did not improve the outcome of T cell mediated colitis
Histological analysis of colon ([3]; hBD2 1 mg/kg s.c. daily): less signs of inflammation and tissue disruption
Weight change ([3]; hBD2 1 mg/kg s.c. daily from day 7 after transfer, n = 11): less weight loss
Colon weight ([3]; hBD2 1 mg/kg s.c. daily, end of experiment, n = 11): significantly reduced the colon weight
DAI [3, 4]: improved DAI
Stool score [3, 4]: Same trait was observed for the stool score
Colonic myeloperoxidase activity ([3]; hBD2 s.c. daily (0.1 or 1 mg/kg), end of experiment): Only a minor effect
